The supplement of paper PMC9112550, “Optimization of the antimicrobial peptide Bac7 by deep mutational scanning” (BMC Biology, 2022)

Tested on: Escherichia coli TOP10
Assay: shrunken log2 fold change of peptide-encoding DNA abundance (4.5 h post-induction vs induction); higher = less antimicrobial activity (less host growth inhibition)
Conditions: time post-induction: 4.5 h; library: site-saturation at positions 5, 18, 19, 20
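Also: peptides expressed intracellularly from a pBAD plasmid library in pooled LB shake-flask culture, induced with 0.3% L-arabinose, DNA abundance read by NGS, three biological replicates, DESeq2 with apeglm shrinkage.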

| Sequence | shrunken log2 fold change |
| --- | --- |
| RRIRTRPPRLPRPRPRPAQTPRP | 0.712 |
| RRIRIRPPRLPRPRPRPAHMPRP | -0.303 |
| RRIRQRPPRLPRPRPRPDEYPRP | 0.0131 |
| RRIRIRPPRLPRPRPRPYHTPRP | -1.25 |
| RRIRSRPPRLPRPRPRPGVWPRP | 0.74 |
| RRIRCRPPRLPRPRPRPLEYPRP | -0.0414 |
| RRIRPRPPRLPRPRPRPFMQPRP | -0.396 |
| RRIRIRPPRLPRPRPRPAEEPRP | -0.084 |
| RRIRERPPRLPRPRPRPSKVPRP | -0.365 |
| RRIRSRPPRLPRPRPRPWKGPRP | -0.0267 |
| RRIRQRPPRLPRPRPRPSDEPRP | -0.275 |
| RRIRFRPPRLPRPRPRPWSGPRP | -0.221 |
| RRIRYRPPRLPRPRPRPLKMPRP | -0.26 |
| RRIRIRPPRLPRPRPRPLVLPRP | -0.458 |
| RRIRMRPPRLPRPRPRPQFMPRP | -0.241 |
| RRIRTRPPRLPRPRPRPEGFPRP | -0.041 |
| RRIRTRPPRLPRPRPRPIISPRP | -0.0891 |
| RRIRARPPRLPRPRPRPRPEPRP | 0.686 |
| RRIRARPPRLPRPRPRPVYAPRP | 0.205 |
| RRIRMRPPRLPRPRPRPCPQPRP | 0.0219 |
| RRIRSRPPRLPRPRPRPSAAPRP | 0.614 |
| RRIRERPPRLPRPRPRPNHHPRP | -0.845 |
| RRIRNRPPRLPRPRPRPVTTPRP | 0.171 |
| RRIRERPPRLPRPRPRPMGAPRP | 0.0638 |
| RRIRTRPPRLPRPRPRPYWRPRP | -0.174 |

| Sequence | shrunken log2 fold change |
| --- | --- |
| RRIRNRPPRLPRPRPRPCKSPRP | -0.0291 |
| RRIRLRPPRLPRPRPRPPSAPRP | 0.654 |
| RRIRLRPPRLPRPRPRPCMYPRP | -0.674 |
| RRIRDRPPRLPRPRPRPEESPRP | 0.14 |
| RRIRLRPPRLPRPRPRPDAAPRP | 2.66 |
| RRIRARPPRLPRPRPRPTTVPRP | 0.45 |
| RRIRYRPPRLPRPRPRPFPYPRP | -0.0356 |
| RRIRNRPPRLPRPRPRPGEIPRP | 0.627 |
| RRIRQRPPRLPRPRPRPRGTPRP | 0.313 |
| RRIRCRPPRLPRPRPRPEFYPRP | -0.356 |
| RRIRGRPPRLPRPRPRPTRVPRP | 0.748 |
| RRIRVRPPRLPRPRPRPDANPRP | 0.167 |
| RRIRERPPRLPRPRPRPCHAPRP | -0.301 |
| RRIRIRPPRLPRPRPRPMNGPRP | 0.00766 |
| RRIRGRPPRLPRPRPRPEFPPRP | 0.482 |
| RRIRHRPPRLPRPRPRPFFYPRP | -0.4 |
| RRIRRRPPRLPRPRPRPLGDPRP | 0.682 |
| RRIRQRPPRLPRPRPRPRWLPRP | 0.453 |
| RRIRRRPPRLPRPRPRPGPIPRP | 0.174 |
| RRIRYRPPRLPRPRPRPQGEPRP | -0.325 |
| RRIRQRPPRLPRPRPRPSPLPRP | 0.0509 |
| RRIRPRPPRLPRPRPRPFQGPRP | -0.0115 |
| RRIRHRPPRLPRPRPRPSRGPRP | -0.0716 |
| RRIRFRPPRLPRPRPRPFAWPRP | -0.0558 |
| RRIRERPPRLPRPRPRPAEMPRP | -0.0352 |

| Sequence | shrunken log2 fold change |
| --- | --- |
| RRIRQRPPRLPRPRPRPGKRPRP | 0.244 |
| RRIRPRPPRLPRPRPRPHCTPRP | -0.479 |
| RRIRNRPPRLPRPRPRPDKTPRP | -0.0594 |
| RRIRLRPPRLPRPRPRPFKQPRP | -0.0215 |
| RRIRSRPPRLPRPRPRPRTLPRP | 0.128 |
| RRIRSRPPRLPRPRPRPLQVPRP | -0.157 |
| RRIRERPPRLPRPRPRPTEMPRP | 0.0983 |
| RRIRPRPPRLPRPRPRPLHRPRP | -0.284 |
| RRIRQRPPRLPRPRPRPKEVPRP | 0.382 |
| RRIRPRPPRLPRPRPRPIMKPRP | -0.411 |
| RRIRWRPPRLPRPRPRPKKTPRP | 0.0382 |
| RRIRYRPPRLPRPRPRPWDVPRP | -0.114 |
| RRIRLRPPRLPRPRPRPMEIPRP | -0.00427 |
| RRIRRRPPRLPRPRPRPWLMPRP | -0.185 |
| RRIRMRPPRLPRPRPRPCGTPRP | 1.97 |
| RRIRFRPPRLPRPRPRPYDCPRP | 0.0187 |
| RRIRWRPPRLPRPRPRPRALPRP | 0.354 |
| RRIRSRPPRLPRPRPRPCHFPRP | -0.186 |
| RRIRYRPPRLPRPRPRPIHEPRP | 0.00548 |
| RRIRWRPPRLPRPRPRPCWQPRP | -0.0167 |
| RRIRNRPPRLPRPRPRPAEPPRP | -0.00965 |
| RRIRDRPPRLPRPRPRPFPIPRP | 0.0144 |
| RRIRIRPPRLPRPRPRPDLAPRP | -0.169 |
| RRIRCRPPRLPRPRPRPVDIPRP | -0.241 |
| RRIRPRPPRLPRPRPRPIFCPRP | -0.0959 |

| Sequence | shrunken log2 fold change |
| --- | --- |
| RRIRYRPPRLPRPRPRPKRRPRP | 0.0144 |
| RRIRIRPPRLPRPRPRPAQCPRP | 0.211 |
| RRIRLRPPRLPRPRPRPRGCPRP | 0.246 |
| RRIRMRPPRLPRPRPRPRAQPRP | 0.232 |
| RRIRYRPPRLPRPRPRPLEFPRP | -0.89 |
| RRIRDRPPRLPRPRPRPVYMPRP | -0.506 |
| RRIRCRPPRLPRPRPRPSVWPRP | 0.238 |
| RRIRCRPPRLPRPRPRPEPAPRP | 0.971 |
| RRIRMRPPRLPRPRPRPYGHPRP | -0.0791 |
| RRIRDRPPRLPRPRPRPQWDPRP | 0.101 |
| RRIRARPPRLPRPRPRPFIRPRP | -0.27 |
| RRIRWRPPRLPRPRPRPVPCPRP | -0.00353 |
| RRIRPRPPRLPRPRPRPCGLPRP | 0.148 |
| RRIRRRPPRLPRPRPRPRSSPRP | 0.0954 |
| RRIRMRPPRLPRPRPRPFEDPRP | 0.2 |
| RRIRHRPPRLPRPRPRPRWQPRP | 0.176 |
| RRIRQRPPRLPRPRPRPLHLPRP | -0.617 |
| RRIRYRPPRLPRPRPRPVIQPRP | -0.607 |
| RRIRCRPPRLPRPRPRPGYFPRP | -0.394 |
| RRIRHRPPRLPRPRPRPFQMPRP | -0.0675 |
| RRIRVRPPRLPRPRPRPQFAPRP | 0.133 |
| RRIRLRPPRLPRPRPRPCCRPRP | 0.0477 |
| RRIRTRPPRLPRPRPRPMIRPRP | -0.0798 |
| RRIRWRPPRLPRPRPRPRMCPRP | 0.272 |
| RRIRDRPPRLPRPRPRPAWWPRP | 0.388 |

| Sequence | shrunken log2 fold change |
| --- | --- |
| RRIRQRPPRLPRPRPRPIYTPRP | 0.036 |
| RRIRDRPPRLPRPRPRPVAYPRP | -0.0825 |
| RRIRQRPPRLPRPRPRPVWYPRP | -0.254 |
| RRIRARPPRLPRPRPRPTLNPRP | 0.496 |
| RRIRFRPPRLPRPRPRPYLYPRP | -0.498 |
| RRIRQRPPRLPRPRPRPVPTPRP | 0.0766 |
| RRIRQRPPRLPRPRPRPVNQPRP | -0.0686 |
| RRIRFRPPRLPRPRPRPHYEPRP | -0.0922 |
| RRIRQRPPRLPRPRPRPGETPRP | 0.0131 |
| RRIRFRPPRLPRPRPRPDPNPRP | -0.072 |
| RRIRIRPPRLPRPRPRPGLLPRP | -0.0591 |
| RRIRIRPPRLPRPRPRPQFNPRP | -0.846 |
| RRIRARPPRLPRPRPRPIAVPRP | 0.166 |
| RRIRYRPPRLPRPRPRPRMQPRP | -0.673 |
| RRIRIRPPRLPRPRPRPLNQPRP | -0.195 |
| RRIRHRPPRLPRPRPRPAAEPRP | 0.334 |
| RRIRSRPPRLPRPRPRPQNDPRP | -0.13 |
| RRIRFRPPRLPRPRPRPMHCPRP | -0.253 |
| RRIRIRPPRLPRPRPRPLYMPRP | -0.918 |
| RRIRCRPPRLPRPRPRPPTLPRP | -0.0423 |
| RRIRWRPPRLPRPRPRPCVRPRP | 0.0233 |
| RRIRWRPPRLPRPRPRPFTEPRP | -0.478 |
| RRIRCRPPRLPRPRPRPGFKPRP | -0.226 |
| RRIRGRPPRLPRPRPRPAMAPRP | 0.913 |
| RRIRTRPPRLPRPRPRPTDLPRP | -0.0718 |

| Sequence | shrunken log2 fold change |
| --- | --- |
| RRIRFRPPRLPRPRPRPVSDPRP | 0.00637 |
| RRIRNRPPRLPRPRPRPPAQPRP | 0.314 |
| RRIRQRPPRLPRPRPRPQWHPRP | -0.0165 |
| RRIRHRPPRLPRPRPRPHQFPRP | 0.0262 |
| RRIRMRPPRLPRPRPRPFIGPRP | -0.0122 |
| RRIRFRPPRLPRPRPRPEVRPRP | 0.14 |
| RRIRGRPPRLPRPRPRPATPPRP | 1.83 |
| RRIRERPPRLPRPRPRPKRVPRP | -0.0417 |
| RRIRERPPRLPRPRPRPACYPRP | -0.308 |
| RRIRSRPPRLPRPRPRPVMSPRP | 0.11 |
| RRIRVRPPRLPRPRPRPKPNPRP | 0.275 |
| RRIRSRPPRLPRPRPRPAHAPRP | 0.121 |
| RRIRSRPPRLPRPRPRPHLPPRP | -0.27 |
| RRIRQRPPRLPRPRPRPAGLPRP | -0.158 |
| RRIRWRPPRLPRPRPRPFEQPRP | 0.0143 |
| RRIRIRPPRLPRPRPRPLRTPRP | -0.0568 |
| RRIRNRPPRLPRPRPRPRWEPRP | 0.291 |
| RRIRKRPPRLPRPRPRPHSCPRP | 0.0828 |
| RRIRARPPRLPRPRPRPSQAPRP | 0.0359 |
| RRIRLRPPRLPRPRPRPMDQPRP | -0.0503 |
| RRIRARPPRLPRPRPRPCMHPRP | -0.226 |
| RRIRTRPPRLPRPRPRPGESPRP | -0.012 |
| RRIRFRPPRLPRPRPRPNDDPRP | -0.755 |
| RRIRLRPPRLPRPRPRPQCLPRP | -0.455 |
| RRIRKRPPRLPRPRPRPTWKPRP | 0.107 |
